Results as given in patent US20240287154A1, “MC3R AGONIST PEPTIDES” (The Regents of the University of Michigan, priority 2021, published 2024).
Non-standard residues stand in square brackets, D forms with d. Residues, ends and D or L forms follow the SMILES beside them. PKcap1 = N-terminal cap C18 diacid-γGlu-mPEG2; PKcap2 = N-terminal cap Aryl(4-I)-Gly-mPEG2; Bip = N[C@@H](Cc1ccc(-c2ccccc2)cc1)C(=O)O; Phe(4-I) = N[C@@H](Cc1ccc(I)cc1)C(=O)O; Nle = CCCC[C@H](N)C(=O)O; dAbu = CC[C@@H](N)C(=O)O; Aib = CC(C)(N)C(=O)O

Experiments:
human MC4R = human MC4R (Homo sapiens, UniProt P32245); assay: Intracellular cAMP levels in live cells, MC3R selectivity relative to MC4R; type: cell-based; details: cAMP assays in human MC3R and human MC4R stable cell lines
Protocol: The stable cell lines were grown and maintained in selection media consisting of Dulbecco's modified Eagle media (DMEM) with 4.5 g/l D-glucose, and 4 mM L-glutamine (Thermo Fisher Scientific, Waltham, MA), supplemented with 10% fetal bovine serum, 100 units/ml penicillin, 100 μg/ml streptomycin, 2.5 μg/ml amphotericin B, 200 μg/ml hygromycin B (for positive selection of the GScAMP22f luciferase reporter), and Geneticin™ (G418) 700 μg/ml (for MC3R or MC4R selection). Actual serum concentration during the assay is estimated to be about 1%. Cell line identity is routinely verified by qPCR and MC3R- and MC4R-specific oligonucleotides.
The assay for the determination of the CAMP response in live cells was described previously. […] Ccells were seeded at a density of 20,000 cells per well using 384-well poly-D lysine-coated, clear bottom, and black-wall assay plates (Corning Inc. Corning, NJ). Cells were allowed to attach to the plates for 18 to 24 h after which growth media was removed and 20 ul of 4% D-luciferin (Promega) in CO2 independent, serum-free medium (Thermo Fisher Scientific) was added to each well. […] Intracellular cAMP levels were measured using an FDSS 7000EX Functional Drug Screening System (Hamamatsu Photonics, Hamamatsu, Japan) in the Center for Chemical Genomics at the Life Sciences Institute. This instrument allowed the in-line addition of test-peptides and receptor agonists while simultaneously acquiring the luminescence signal from live cells. […] A submaximal forskolin (20 μM) concentration was also included to serve as a normalization reference to account for cell number variations and differences in assay transducer efficiency between cell lines.
With this set up it was possible to evaluate the direct agonist effect of the test-peptides on the MC3R and MC4R cell lines during measurement window 1, while the antagonist profile in the presence of EC90 α-MSH was determined on measurement window 2. […] EC50 or IC50 potency values were determined by non-linear regression by fitting the data to a sigmoid four-parameter variable slope model using the GraphPad Prism version 8.4 software package (San Diego CA).

human MC3R = human MC3R (human, UniProt P41968 1-323); assay: cell-based or functional assay
Chain of human MC3R (P41968 whole entry): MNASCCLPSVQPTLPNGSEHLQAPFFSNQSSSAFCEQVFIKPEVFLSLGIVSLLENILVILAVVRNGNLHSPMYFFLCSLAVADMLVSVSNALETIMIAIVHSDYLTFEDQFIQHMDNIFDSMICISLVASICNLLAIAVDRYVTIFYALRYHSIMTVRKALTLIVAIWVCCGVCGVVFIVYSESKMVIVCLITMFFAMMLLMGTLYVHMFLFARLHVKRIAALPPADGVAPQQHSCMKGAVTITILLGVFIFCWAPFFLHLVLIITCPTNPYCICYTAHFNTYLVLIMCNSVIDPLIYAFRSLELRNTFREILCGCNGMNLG

Chain of human MC4R (P32245 whole entry): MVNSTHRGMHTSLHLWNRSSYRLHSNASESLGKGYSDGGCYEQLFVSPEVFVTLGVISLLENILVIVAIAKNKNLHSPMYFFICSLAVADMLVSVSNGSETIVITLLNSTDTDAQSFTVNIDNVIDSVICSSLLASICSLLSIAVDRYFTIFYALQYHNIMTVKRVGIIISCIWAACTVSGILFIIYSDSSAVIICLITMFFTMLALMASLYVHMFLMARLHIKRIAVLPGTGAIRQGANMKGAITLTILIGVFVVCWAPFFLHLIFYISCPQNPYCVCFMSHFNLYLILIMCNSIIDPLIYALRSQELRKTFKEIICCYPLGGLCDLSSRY

With `CCCC[C@H](NC(=O)[C@@H](NC(=O)[C@@H](N)Cc1ccc(O)cc1)C(C)C)C(=O)N[C@H](C)C(=O)N[C@@H](Cc1c[nH]cn1)C(=O)N[C@H](Cc1ccccc1)C(=O)N[C@@H](CCCNC(=N)N)C(=O)N[C@H](Cc1c[nH]c2ccccc12)C(=O)N[C@@H](CC(=O)O)C(=O)N[C@@H](CCCNC(=N)N)C(=O)N[C@@H](Cc1ccccc1)C(=O)NCC(=O)O` [CTX-1104, Tyr-Val-Nle-D-Ala-His-D-Phe-Arg-D-Trp-Asp-Arg-Phe-Gly] (H-YV[Nle][dA]H[dF]R[dW]DRFG-OH) the “MC3R selectivity (relative to MC4R)” value (human MC4R) was 27.

In the case of `CCCC[C@H](NC(=O)[C@@H](NC(=O)[C@@H](N)Cc1ccc(O)cc1)C(C)C)C(=O)NCC(=O)N[C@@H](Cc1c[nH]cn1)C(=O)N[C@H](Cc1ccccc1)C(=O)N[C@@H](CCCNC(=N)N)C(=O)N[C@H](Cc1c[nH]c2ccccc12)C(=O)N[C@@H](CC(=O)O)C(N)=O` [CTX-1107, Tyr-Val-Nle-Gly-His-D-Phe-Arg-D-Trp-Asp] (H-YV[Nle]GH[dF]R[dW]D-NH2), the “MC3R selectivity (relative to MC4R)” value (human MC4R) is reported as 2.4.

With `CC(=O)N[C@@H](CO)C(=O)NCC(=O)N[C@@H](Cc1c[nH]cn1)C(=O)N[C@H](Cc1ccccc1)C(=O)N[C@@H](CCCNC(=N)N)C(=O)N[C@H](Cc1c[nH]c2ccccc12)C(=O)N[C@@H](CC(=O)O)C(N)=O` [CTX-1111, Ser-Gly-His-D-Phe-Arg-D-Trp-Asp] (Ac-SGH[dF]R[dW]D-NH2) the “MC3R selectivity (relative to MC4R)” value (human MC4R) was 0.1.

In the case of `CC(=O)N[C@H](C(=O)NCC(=O)N[C@@H](Cc1c[nH]cn1)C(=O)N[C@@H](Cc1ccccc1)C(=O)N[C@@H](CCCNC(=N)N)C(=O)N[C@H](Cc1c[nH]c2ccccc12)C(=O)N[C@@H](CC(=O)O)C(N)=O)[C@@H](C)O` [CTX-1112, Thr-Gly-His-Phe-Arg-D-Trp-Asp] (Ac-TGHFR[dW]D-NH2), the “MC3R selectivity (relative to MC4R)” value (human MC4R) is reported as 8.6.

For `CC(=O)N[C@H](C(=O)NCC(=O)N[C@@H](Cc1c[nH]cn1)C(=O)N[C@H](Cc1ccccc1)C(=O)N[C@@H](CCCNC(=N)N)C(=O)N[C@H](Cc1c[nH]c2ccccc12)C(=O)N[C@@H](CC(=O)O)C(N)=O)[C@@H](C)O` [CTX-1113, Thr-Gly-His-D-Phe-Arg-D-Trp-Asp] (Ac-TGH[dF]R[dW]D-NH2), the “MC3R selectivity (relative to MC4R)” value (human MC4R) was 0.4.

`CCCC[C@H](NC(C)=O)C(=O)N[C@H](C)C(=O)N[C@@H](Cc1c[nH]cn1)C(=O)N[C@@H](Cc1ccccc1)C(=O)N[C@@H](CCCNC(=N)N)C(=O)N[C@H](Cc1c[nH]c2ccccc12)C(=O)N[C@@H](CC(=O)O)C(N)=O` [CTX-1123, Nle-D-Ala-His-Phe-Arg-D-Trp-Asp] (Ac-[Nle][dA]HFR[dW]D-NH2) was tested, and the “MC3R selectivity (relative to MC4R)” value (human MC4R) was 28.

For `CCCC[C@H](NC(=O)[C@@H](NC(=O)[C@@H](N)Cc1ccc(O)cc1)C(C)C)C(=O)NC(C)(C)C(=O)N[C@@H](Cc1c[nH]cn1)C(=O)N[C@@H](Cc1ccccc1)C(=O)N[C@@H](CCCNC(=N)N)C(=O)N[C@H](Cc1c[nH]c2ccccc12)C(=O)N[C@@H](CC(=O)O)C(N)=O` [CTX-1130, Tyr-Val-Nle-Aib-His-Phe-Arg-D-Trp-Asp] (H-YV[Nle][Aib]HFR[dW]D-NH2), the “MC3R selectivity (relative to MC4R)” value (human MC4R) was 58.

`CCCC[C@H](NC(=O)[C@@H](NC(=O)[C@@H](N)Cc1ccc(O)cc1)C(C)C)C(=O)N[C@@H](C)C(=O)N[C@@H](Cc1c[nH]cn1)C(=O)N[C@@H](Cc1ccccc1)C(=O)N[C@@H](CCCNC(=N)N)C(=O)N[C@H](Cc1c[nH]c2ccccc12)C(=O)N[C@@H](CC(=O)O)C(=O)N[C@@H](CCCNC(=N)N)C(=O)N[C@@H](Cc1ccccc1)C(=O)NCC(=O)O` [CTX-1133, Tyr-Val-Nle-Ala-His-Phe-Arg-D-Trp-Asp-Arg-Phe-Gly] (H-YV[Nle]AHFR[dW]DRFG-OH) was tested, and the “MC3R selectivity (relative to MC4R)” value (human MC4R) was 7.4.

In the case of `CCCC[C@H](NC(=O)[C@@H](NC(=O)[C@@H](N)Cc1ccc(O)cc1)C(C)C)C(=O)N[C@H](CC)C(=O)N[C@@H](Cc1c[nH]cn1)C(=O)N[C@@H](Cc1ccccc1)C(=O)N[C@@H](CCCNC(=N)N)C(=O)N[C@H](Cc1c[nH]c2ccccc12)C(=O)N[C@@H](CC(=O)O)C(=O)N[C@@H](CCCNC(=N)N)C(=O)N[C@@H](Cc1ccccc1)C(=O)NCC(=O)O` [CTX-1135, Tyr-Val-Nle-D-Abu-His-Phe-Arg-D-Trp-Asp-Arg-Phe-Gly] (H-YV[Nle][dAbu]HFR[dW]DRFG-OH), the “MC3R selectivity (relative to MC4R)” value (human MC4R) is reported as 667.

For PKcap2-G[dY]V[Nle][dA]HFR[dW]D[dR]FG-OH [CTX-1156], the “MC3R cAMP (EC50)” value (human MC3R) was 8.6 nM and the “MC3R selectivity (relative to MC4R)” value (human MC3R) was 86.

PKcap2-G[Nle][dA]HFR[dW]DR[dF]G-OH [CTX-1154] was tested, and the “MC3R cAMP (EC50)” value (human MC3R) was 5.8 nM and the “MC3R selectivity (relative to MC4R)” value (human MC3R) was 1070.

B1: CTX-1168 (peptide)
peptide: Ac-[Nle][dA]H[Bip]R[dW]DRFG-NH2
SMILES: CCCC[C@H](NC(C)=O)C(=O)N[C@H](C)C(=O)N[C@@H](Cc1c[nH]cn1)C(=O)N[C@@H](Cc1ccc(-c2ccccc2)cc1)C(=O)N[C@@H](CCCNC(=N)N)C(=O)N[C@H](Cc1c[nH]c2ccccc12)C(=O)N[C@@H](CC(=O)O)C(=O)N[C@@H](CCCNC(=N)N)C(=O)N[C@@H](Cc1ccccc1)C(=O)NCC(N)=O
With B1 the “MC3R cAMP (EC50)” value (human MC3R) was 28.6 nM and the “MC3R selectivity (relative to MC4R)” value (human MC3R) was 485.

PKcap2-GV[Nle][dA]HFR[dW]DRFG-OH [CTX-1150] was tested, and the “MC3R cAMP (EC50)” value (human MC3R) was 2.9 nM and the “MC3R selectivity (relative to MC4R)” value (human MC3R) was 577.

For PKcap1-G[dY]V[Nle][dA]HFR[dW]DRFG-OH [CTX-1151], the “MC3R cAMP (EC50)” value (human MC3R) was 299 nM and the “MC3R selectivity (relative to MC4R)” value (human MC3R) was 126.

For PKcap2-G[Nle][dA]HFR[dW]DRFG-OH [CTX-1148], the “MC3R cAMP (EC50)” value (human MC3R) was 1.5 nM and the “MC3R selectivity (relative to MC4R)” value (human MC3R) was 1200.

B2: CTX-1171 (peptide)
peptide: H-[dY]V[Nle][dA]H[Phe(4-I)]R[dW]D-NH2
SMILES: CCCC[C@H](NC(=O)[C@@H](NC(=O)[C@H](N)Cc1ccc(O)cc1)C(C)C)C(=O)N[C@H](C)C(=O)N[C@@H](Cc1c[nH]cn1)C(=O)N[C@@H](Cc1ccc(I)cc1)C(=O)N[C@@H](CCCNC(=N)N)C(=O)N[C@H](Cc1c[nH]c2ccccc12)C(=O)N[C@@H](CC(=O)O)C(N)=O
With B2 the “MC3R cAMP (EC50)” value (human MC3R) was 54 nM and the “MC3R selectivity (relative to MC4R)” value (human MC3R) was 234.

In the case of PKcap1-G[dY]V[Nle][dA]HFR[dW]D[dR]FG-OH [CTX-1155], the “MC3R cAMP (EC50)” value (human MC3R) is reported as 3130 nM and the “MC3R selectivity (relative to MC4R)” value (human MC3R) is reported as 415.

In the case of PKcap1-G[Nle][dA]HFR[dW]DR[dF]G-OH [CTX-1153], the “MC3R cAMP (EC50)” value (human MC3R) is reported as 5120 nM and the “MC3R selectivity (relative to MC4R)” value (human MC3R) is reported as 0.13.

In the case of PKcap1-GV[Nle][dA]HFR[dW]DRFG-OH [CTX-1149 (PKcap1, SEQ ID NO 40)], the “MC3R cAMP (EC50)” value (human MC3R) is reported as 313 nM and the “MC3R selectivity (relative to MC4R)” value (human MC3R) is reported as 215.

For PKcap1-G[Nle][dA]HFR[dW]DRFG-OH [CTX-1147], the “MC3R cAMP (EC50)” value (human MC3R) was 556 nM and the “MC3R selectivity (relative to MC4R)” value (human MC3R) was 335.
